Consider 20 molecules from patent US20240239907A1 (EDELWEISS IMMUNE, published 2024).

Where a chain is given by its changes, count along the chain named.

To fix the notation:
B1: CNGs-1B7 (antibody, V domains shown)
VH: EVKLEESGGGLVRPGGSMKLSCVASGFTFSDYWMNWVRQSPEKGLEWLAQIRLNSGNYAARYAESVKGRFTISRDDSKNSVYLQMINLRAEDTGIYFCTSNAWLANWGQGTLVTVSA
VL: DIVMTQTAPSVPVTPGESVSISCRSSKSLLHSNGNTYLYWFLQRPGQSPQRLIYSVSNLASGVPDRFSGRGSGTDFTLTISRVEAEDVGVYYCMQSLEYPYTFGGGTKLEIK
notes: Mouse-derived
B2: CNE-7B1 (antibody, V domains shown)
VH: QVQLQQSGPELVKPGTSVRISCKTSGYTFTSSYVHWVKRRPGQGLEWIGWIYPGNDYTKYNEKFKGKATLTADKSSSTAYMRLSSLASEDSAVYFCTRSYYGFDYWGQGTTLTVSS
VL: DVLMTQTPLSLPVSLGDQASISCRSGQSIVRSRGNTYLEWYLQKPGQSPKLLIYKVSNRFSGVPDRFSGSGSGTDFTLKISRVEAEDLGVYYCFQGSHVPYTFGGGTKLEIK
notes: Mouse-derived; tested at the screening stage
B3: CNGs-1E1-G5 (antibody, V domains shown)
VH: QVQLQQSGPELVKPGASVRISCKASGYTFTTSYIHWVKQRPGQGLEWIGWISPGNVNTRSNEKFKGKATLTADKSSNTAYMQLSSLTSEDSAVYFCAKSYFGFDFWGQGTTLTVSS
VL: B2 VL with G26S, R31H, R33N, L42V, F60S
notes: as for B2
B4: Beacon1-G12 (antibody, V domains shown)
VH: EIQLVQSGPELKKPGKTVKISCKASGYTFTTYGMSWVKQAPGKALKWMGWINTYSGVPTYADDFKGRFAFSLETSASTAYLQINNLKNEDTATYFCAIRRLSITLHGMDYWGQGTSVTVS
VL: DIQMTQSPASLSVSVGETVTITCRASENIYSNLAWYQQKQGKSPQLLVYGATNLADGVPSRFSGSGSGTQYSLKINSLQSEDFGSYYCQHFWGTPWTFGGGTKLEIK
notes: Mouse-derived
B5: COXs-1B10 (antibody, V domains shown)
VH: QVTLKESGPGILKASQTLSLTCSFSGFSLSTSGMGIGWIRQPSGKGPEWLAHIWWDDEKYYRPSLKSRLTVSKDTSRNQVFLNITSVDTTDSASYYCVQRTPGRFAYWGQGTLVTVST
VL: DIVMTQSPSSLAVSIGQKVIMSCKSSQSLLSSRTQKNYLAWYQQKPGQSPKLLVYFASIRESGVPDRFTGSGSGTDFTLTISTVQAEDLAVYYCQQYFLTPYTFGGGTKLEIK
notes: Mouse antibody
B6: COXs-11H4 (antibody, V domains shown)
VH: EVQLVESGGGLVQPKGSLKLSCAASGFTFNTYAMNWVRQVPGKGLEWIARMRSESKNFATYYADSVKDRFTISRDDSESILYLQMNNLKTEDTGMYYCVRQGNFDVWGTGTTVTVSS
VL: DVVMTQAPLSLSVSLGDQASISCRSGQNIVHTDGNTYLYWSLQKPGQSPNLLIYKVSNRFSGVPDRFSGSGSGTDFTLKINRVEAEDMGVYYCFQLTHVPYTFGGGTKLEIK
notes: as for B2
B7: Beacon2-D5 (antibody, V domains shown)
VH: EVQLVESGGGLVQPKGSLKLSCAASGFTFNTYAMNWVRQAPGKGLEWVARIRSKSNNYATYYADSVKDRFTISRDDSQSMLYLQMNNLKTEDTAMYYCLSHGAFAYWGQGTLVTVSA
VL: not shown
notes: as for B2
B8: CNE-6H7-G7 (antibody, V domains shown)
VH: B7 VH with T28S, A59G, Q78E, Q84K, A103S, F104S
VL: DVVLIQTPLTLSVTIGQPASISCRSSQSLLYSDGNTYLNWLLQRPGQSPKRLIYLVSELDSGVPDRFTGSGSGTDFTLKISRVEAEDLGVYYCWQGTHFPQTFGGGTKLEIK
notes: as for B2
B9: CNGs-1C1 (antibody, V domains shown)
VH: B7 VH with Q13R, T28S, T31A, Q78E
VL: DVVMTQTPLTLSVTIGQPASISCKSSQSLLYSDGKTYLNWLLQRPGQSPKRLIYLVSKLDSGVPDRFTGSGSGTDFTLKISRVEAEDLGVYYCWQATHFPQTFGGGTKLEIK
notes: as for B2
B10: CNF-2F8 (antibody, V domains shown)
VH: B7 VH with T28S, N30Q, S55R, T71S, Q78E, S79N
VL: not shown
notes: as for B2
B11: CNE-6E10 (antibody, V domains shown)
VH: B7 VH with T28S, S55T, N57S, A59E, Q78E, M95V
VL: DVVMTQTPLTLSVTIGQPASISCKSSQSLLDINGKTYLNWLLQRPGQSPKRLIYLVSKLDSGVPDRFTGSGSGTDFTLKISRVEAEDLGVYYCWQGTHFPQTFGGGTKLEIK
notes: Mouse-derived
B12: COXs-2D2 (antibody, V domains shown)
VH: EVQLVESGGGLVQPKGSLKLSCTASGFSFDTYAMNWVRQAPGKGLEWIARIRSKSKNYATYYADSVKDRFTISRDDSANILYLQMNNLKTEDTAIYYCLRQGSFDYWGQGTTLTVSS
VL: DVVLTQTPLSLPVSLGDQASISCRSGQRIVHTDGNTYLYWYLQKPGQSPKLLIYRVSNRFSGVPDRFSGSGSGTDFTLKISRVEAEDMGIYYCFQGTHFPYTFGGGTKLEIK
notes: Mouse-derived
B13: COXs-4H5 (antibody, V domains shown)
VH: B4 VH
VL: B12 VL with L4M, T7S, S22Y, G26S, T32S, K44R
notes: as for B2
B14: COXs-11E5 (antibody, V domains shown)
VH: B12 VH with I48V, I72V
VL: B12 VL with L4M, G26S, T77I
notes: as for B2
B15: COXs-2D4 (antibody, V domains shown)
VH: B12 VH with Q3H, Y58S
VL: B12 VL with L4M, G26S, S81T
notes: as for B2
B16: COXs-9D6 (antibody, V domains shown)
VH: B12 VH with Q3H, I48V, K67T, R100S
VL: B12 VL with L4M, G26S, T77I
notes: as for B2
B17: COXs-12E7 (antibody, V domains shown)
VH: B12 VH with Q3H, T23K, I48V, N57S
VL: B12 VL with L4M, S22Y, G26S, T32S, K44R
notes: as for B2
B18: COXs-7A7 (antibody, V domains shown)
VH: EVQLMESGGGLVKPGGSRKLSCAASGFTFSDYGMHWVRQAPEKGLEWIAYINSGSSTIHYADSVKGRFTISRDNAKNTLFLQMTSLRSEDTAMYYCVRPGFAYWGQGTLITVSA
VL: DIVMTQTPLTLSTTVGQSAFISCRSSQSLLHRNGNTYLNWFLQRPGQSPQLLVYEIFERKSGVPDRFSGSGSGTDFTLKISRVEAEDLGVYYCMQATYEPLTFGAGTKLELK
notes: as for B2
B19: COXs-7E6 (antibody, V domains shown)
VH: B18 VH with Y32H, Q82H
VL: B18 VL with T13I
notes: as for B2
B20: CNGs-1B7-E4 (antibody, V domains shown)
VH: EVQLVESGGGLVQPRGSLKLSCAASGFTFNTYAMNWVRQAPGNGLEWVARIRSKSYNYATYHAGSVKDRFTISRDDSQNMLYLQMNNLKTEDTAMYYCMRGQTYWGQGTLVTVSA
VL: DVVLTQTPLSLPVNIGDQASISCKSTKSLLNSDGFTYLDWHLQKPGQSPQLLIYLVSNRFSGVPDRFSGSGSGTDFTLKISRVEAEDLGVYYCFQSNYLPFTFGSGTKLEMK
notes: as for B2

T1 sequence (O00574 whole entry): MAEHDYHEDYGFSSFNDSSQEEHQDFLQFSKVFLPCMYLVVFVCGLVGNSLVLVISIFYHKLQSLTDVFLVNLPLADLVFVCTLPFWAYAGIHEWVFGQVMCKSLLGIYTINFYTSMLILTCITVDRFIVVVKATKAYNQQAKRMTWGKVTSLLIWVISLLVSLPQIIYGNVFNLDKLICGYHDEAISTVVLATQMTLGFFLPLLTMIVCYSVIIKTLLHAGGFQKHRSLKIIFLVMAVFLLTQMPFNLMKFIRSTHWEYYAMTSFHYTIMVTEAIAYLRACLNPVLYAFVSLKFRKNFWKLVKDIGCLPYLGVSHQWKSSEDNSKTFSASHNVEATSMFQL

The assay concerns the target T1, human CXCR6 (human, UniProt O00574 1-342).
T1 construct: also called hu-CXCR6; wild type human CXCR6
The experiment in a line: screening on cells overexpressing CXCR6, one single concentration, yes/no.
As to B1, the binding result is given as “binds”.
The same measure for B2: “binds”.
The same measure for B3: “binds”; for B4: “binds”.
Consider B5, for which the binding result is on record as “binds”.
The result for B6 reads “binds”; that for B7, “binds”.
The same measure for B8: “binds”.
The same measure for B9: “binds”; for B10: “binds”; for B11: “binds”.
In the case of B12, the binding result is “binds”.
As to B13, the binding result was “binds”.
The result for B14 reads “binds”.
The result for B15 reads “binds”; that for B16, “binds”.
The same measure for B17: “binds”.
For B18, the binding result is on record as “binds”.
On to B19, for which the binding result is “binds”.
The result for B20 reads “binds”.
